Laboratory results: US8637043B2, “Compositions useful as ligands for the formyl peptide receptor like 1 receptor and methods of use thereof” (Chemocentryx, Inc., priority 2001, dated 2014)
Entries after “also recorded” stand apart in the source; their conditions may differ. Like-named read-outs stand apart in the source and are kept apart here. Ends that are not written are not given here.

T1: CCR1 (Homo sapiens, UniProt P32246)
T1 construct: full length cDNA encoding CCR1 was cloned by the polymerase chain reaction (PCR) from genomic DNA isolated from human peripheral blood cells; expressed in transfected cells; pcDNA3.1 vector)
T1 sequence (P32246 1-355): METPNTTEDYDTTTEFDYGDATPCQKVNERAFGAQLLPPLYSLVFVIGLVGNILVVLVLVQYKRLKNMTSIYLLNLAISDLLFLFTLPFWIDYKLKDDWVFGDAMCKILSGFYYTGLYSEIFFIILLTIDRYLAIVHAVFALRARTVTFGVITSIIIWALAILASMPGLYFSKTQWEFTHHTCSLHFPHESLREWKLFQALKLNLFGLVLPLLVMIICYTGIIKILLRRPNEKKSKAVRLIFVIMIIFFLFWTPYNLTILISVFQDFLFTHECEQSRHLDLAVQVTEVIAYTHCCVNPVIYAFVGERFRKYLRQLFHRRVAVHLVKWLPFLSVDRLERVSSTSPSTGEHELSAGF

B1: CKβ8(25-99): known truncated CKβ8 variant, human recombinant chemokine from R&D Systems (protein, listed as Homo sapiens)
chain: RFHATSADCCISYTPRSIPCSLLESYFETNSECSKPGVIFLTKKGRRFCANPSDKQVQVCMRMLKLDTRIKTRKN
B2: CKβ8-1(25-116): novel NH2-terminal truncated form of CKβ8-1, SEQ ID NO: 16, human recombinant chemokine (protein, listed as Homo sapiens)
chain: MLWRRKIGPQMTLSHAAGFHATSADCCISYTPRSIPCSLLESYFETNSECSKPGVIFLTKKGRRFCANPSDKQVQVCMRMLKLDTRIKTRKN
B3: CKβ8-1(1-116): alternatively spliced form of CKβ8, 116 amino acids, human recombinant chemokine (protein, listed as Homo sapiens)
chain: RVTKDAETEFMMSKLPLENPVLLDMLWRRKIGPQMTLSHAAGFHATSADCCISYTPRSIPCSLLESYFETNSECSKPGVIFLTKKGRRFCANPSDKQVQVCMRMLKLDTRIKTRKN

Legend:
[1] = system: immature Dendritic Cells; experiment: Calcium mobilization, immature dendritic cells; assay type: cell-based, human
Experimental: Human recombinant CKβ8-1(25-116) chemokine was obtained from R&D Systems (Minneapolis, Minn.). The peptide SHAAGtides SEQ ID NO:1 and SEQ ID NO:6 and a control protein (the reverse sequence of SEQ ID NO:1) were synthesized and HPLC-purified using routine techniques as described in Sambrook et al., 1989, and Ausubel et al., 1999.
Immature DCs were derived by culturing CD14+ monocytes in the presence of GM-CSF and IL4. Briefly, monocytes were cultured in a T-175 flask at 10^6 cells/ml in RPMI/10% FCS. Recombinant human GM-CSF and IL4 were added on day 0, 2, 4 and 6 to a final concentration of 1000 u/ml and 500 u/ml, respectively. Cells were harvested on day 7 as immature DCs and characterized for surface protein expression by FACS analysis. DC maturation was carried out by culturing day 6 immature DCs in macrophage-conditioned medium (MCM). Briefly, day 6 immature DCs were harvested by centrifugation and resuspended in MCM at 10^6 cells/ml. The medium was supplemented with 1000 u/ml of GM-CSF and 500 u/ml IL4. After three more days of culture, cells were harvested as mature DCs and characterized by surface protein expression flow cytometry.
(§1) Ca^2+ mobilization responses were performed using an intracellular ratiometric fluorescent dye, Indo-1. Cells were loaded with Indo-1/AM (3 μM; Molecular Probes (Eugene, Oreg.)) in culture medium (45 min, 20° C., 10^7 cells/mi). After dye loading, cells were washed once (10 ml PBS) and resuspended at 10^6 cell/ml in HBSS containing 1% FBS. Cytosolic [Ca^2+] release was determined using excitation at 350 nm using a Photon Technology International fluorimeter (excitation at 350 nm, ratioed dual emission at 400 and 490 nm).

[2] = system: monocytes; experiment: Cross-desensitization with leukotactin, monocytes; assay type: cell-based, human
Experimental: In cross-desensitization tests tests, cells were stimulated sequentially with leukotactin and then the chemokines CKβ8(1-99), CKβ8(25-99), CKβ8-1(1-116), and CKβ8-1(25-116). On HEK293-CCR1 transfectants (prepared as in Example 1), leukotactin induced similar patterns of receptor desensitization to all variants.
Similar receptor cross-desensitization tests were performed using both monocytes and neutrophils (prepared as in Example 2).

[3] = target: T1, CCR1; experiment: Intracellular calcium flux in HEK293-CCR1 transfectants; assay type: cell-based; settings: 100 nM; for maximal receptor stimulation compared with leukotactin: same concentration of leukotactin; for calcium flux: HEK293-CCR1 transfectants
Experimental: The human recombinant chemokines, leukotactin, three known CKβ8 variants CKβ8(1-99), CKβ8(25-99), CKβ8-1(1-116) and a novel NH2-terminal truncated form of CKβ8-1, CKβ8-1 (25-116) were obtained from R&D Systems (Minneapolis, Minn.). CKβ8-1(25-116) was compared with the other three variants for the ability to elicit an intracellular calcium mobilization in stable human CCR1 transfected […] cells. Human HEK293-CCR1 cells were prepared using Fugena 6 (Roche, Ind.) following the manufacturer's protocol. The HEK-293 cell lines were maintained in DMEM with 10% FBS supplemented with 800 μg/ml G-418.
Stable expression of human chemokine receptor CCR1 in HEK293 cell was obtained as follows: full length cDNA encoding CCR1 was cloned by the polymerase chain reaction (PCR) from genomic DNA isolated from human peripheral blood cells. The PCR product was cloned into pcDNA3.1 (Invitrogen, Carlsbad, Calif.) using standard molecular cloning procedures and completely sequenced to confirm identity.
Two micrograms of the CCR1/pcDNA3.1 construct were used to transfect the HEK293 cells as follows. FuGENE:DNA complex was prepared by mixing 6.0 μl FuGENE 6 reagent (Roche Molecular Biochemicals, Calif.) and 2 μg CCR1/pcDNA3.1 in 100 ul of serum-free medium (Hyclone, Colo.). After incubating for 30 minutes at room temperature, the complex was added to a 60 mm culture plate containing 0.5-1×10^6 cells in 10 ml DMEM medium supplemented with 10% FBS (Hyclone, Colo.). After mixing, the cells were returned to the incubator to culture at 37° C. for two days. At 48 hours post-transfection, Genetinin (G418) (Mediatech, Herndon, Va.) was added at a final concentration of 800 ug/ml. The cells were then plated in 96-well plates at a concentration of 20,000 cells/well. After 2-3 weeks under G418 selection, stable geneticin-resistant CCR1 expressing cells were assessed for their ability to mobilize calcium in response to MIP-1α at a concentration of 1-500 nM.
as §1, with “using the” for “using an”, “dye, lndo-1.” for “dye, Indo-1.”, “Molecular Probes, Eugene, Oreg.)” for “Molecular Probes (Eugene, Oreg.))”, “10^7 cells/ml).” for “10^7 cells/mi).”, “once with 10” for “once (10”
With HEKCCR1-293 transfectants, CKβ8-1(25-116) and the other CKβ8 variants induced a rapid calcium flux at 100 nM.

Molecule	calcium flux [1]	desensitization by leukotactin prestimulation [2]	maximal receptor stimulation compared with leukotactin [3]	calcium flux [3]	calcium flux ([1]; listed as CKβ8-1 (25-116))
MLWRRKIGPQMTLSHAAG [SEQ ID NO: 1]	partially active				
MLWRRKIGPQMTLSHAAY [SEQ ID NO: 6]	partially active				
B1		completely desensitized	equivalent to those obtained with the same concentration of the CCR1 agonist, leukotactin	high calcium response; also recorded: lower	
B2	induces Ca^2+ release	did not desensitize	equivalent to those obtained with the same concentration of the CCR1 agonist, leukotactin	high calcium response	partially active
B3		completely desensitized		lower	
